Experimental data from PMC2979009.

Target: subtilisin pS169 (A1C mutant of S189), labeled with Alexafluor 350 maleimide (Bacillus amyloliquefaciens)

“P1 (residues 1−77 of pG12), the prodomain product left after cleavage (domain or fragment)” was tested, and the Kd was under 1 nM.
